Laboratory results taken from patent US20160251440A1 (Ablynx, published 2016).

Tests used:
[1] = biological target: T1, human IL-3Rα (CD123), cell-expressed (human, UniProt P26951 19-378); experiment: flow cytometry on Molm-13 cells; EC50(M) printed in the legend box beside the curves
T1 construct: whole, on cells; also called IL-3Ra; Hek-IL-3Rα

[2] = biological target: T1, human IL-3Rα (CD123), cell-expressed; experiment: FACS, MOLM-13 cells
[3] = biological target: T2, recombinant IL-3Rα ectodomain (human, UniProt P26951 19-305); experiment: SPR ProteOn, immobilised IL-3Rα ectodomain
T2 construct: extracellular domain; also called recombinant IL-3Ra; biotinylated-IL-3Rα ectodomain
T2 sequence (looked up): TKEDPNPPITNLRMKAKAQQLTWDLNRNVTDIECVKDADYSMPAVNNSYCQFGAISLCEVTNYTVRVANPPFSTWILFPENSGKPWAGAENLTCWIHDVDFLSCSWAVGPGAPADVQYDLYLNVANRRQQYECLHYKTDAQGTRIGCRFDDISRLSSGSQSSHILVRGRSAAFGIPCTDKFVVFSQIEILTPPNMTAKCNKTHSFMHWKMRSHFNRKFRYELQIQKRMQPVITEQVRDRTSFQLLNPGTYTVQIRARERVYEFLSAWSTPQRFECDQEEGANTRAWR

[4] = biological target: T2, recombinant IL-3Rα ectodomain; experiment: competition ELISA, coated mAb 7G3 + biotinylated IL-3Rα ectodomain
[5] = biological target: T3, recombinant human CEACAM5 (human, UniProt P06731 35-685); experiment: SPR Biacore T100, immobilised hCEACAM-5
T3 construct: also called hCEACAM-5; R&D Systems 4128-CM
T3 sequence (looked up): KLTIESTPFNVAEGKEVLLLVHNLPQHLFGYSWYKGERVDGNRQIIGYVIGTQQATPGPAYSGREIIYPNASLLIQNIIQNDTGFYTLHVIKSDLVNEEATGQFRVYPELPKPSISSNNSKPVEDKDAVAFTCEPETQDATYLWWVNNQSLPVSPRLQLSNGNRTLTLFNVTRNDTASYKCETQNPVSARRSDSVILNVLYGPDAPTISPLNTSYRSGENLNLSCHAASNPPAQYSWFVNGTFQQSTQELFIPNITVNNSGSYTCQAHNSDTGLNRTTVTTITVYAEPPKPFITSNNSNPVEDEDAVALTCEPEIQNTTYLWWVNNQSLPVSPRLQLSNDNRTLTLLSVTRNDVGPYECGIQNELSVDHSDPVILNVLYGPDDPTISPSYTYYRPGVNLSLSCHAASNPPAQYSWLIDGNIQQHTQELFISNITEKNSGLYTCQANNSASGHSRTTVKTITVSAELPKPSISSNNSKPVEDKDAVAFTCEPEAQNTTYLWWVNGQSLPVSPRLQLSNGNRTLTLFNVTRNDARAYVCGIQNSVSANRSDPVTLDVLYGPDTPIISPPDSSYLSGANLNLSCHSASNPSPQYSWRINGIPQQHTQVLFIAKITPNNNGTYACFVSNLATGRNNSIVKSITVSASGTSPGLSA

[6] = biological target: T4, human IL12Rβ1, cell-expressed (human, UniProt P42701 24-662); experiment: flow cytometry on isolated CD8+ T cells of donor D863, anti-Flag detection
T4 construct: whole, on cells; in the context of the heterodimeric receptor; also called IL12Rb1

[7] = biological target: human CXCR4 (on cells, viral lipoparticles or membrane extracts) (human, UniProt P61073 1-352); experiment: cell-based or functional assay
Chain of human CXCR4 (on cells, viral lipoparticles or membrane extracts) (P61073 whole entry, the tested form may be a part): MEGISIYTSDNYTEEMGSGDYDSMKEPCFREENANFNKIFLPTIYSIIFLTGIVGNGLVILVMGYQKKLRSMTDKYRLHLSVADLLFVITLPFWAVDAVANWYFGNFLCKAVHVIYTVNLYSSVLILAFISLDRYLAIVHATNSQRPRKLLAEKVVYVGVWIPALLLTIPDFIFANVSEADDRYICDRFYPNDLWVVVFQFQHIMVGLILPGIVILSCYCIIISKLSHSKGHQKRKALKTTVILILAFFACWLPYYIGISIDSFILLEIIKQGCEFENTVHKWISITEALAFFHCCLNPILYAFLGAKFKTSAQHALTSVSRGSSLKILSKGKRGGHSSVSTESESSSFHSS

[8] = biological target: T2, recombinant IL-3Rα ectodomain; experiment: ELISA on recombinant IL-3Ra ectodomain (lower right panel)
[9] = biological target: CXCR4 and CD4 co-expressed on cells (MOLM-13, THP-1, MT-4, PBMC; Jurkat CD4 low) (human, UniProt P61073 1-352; P01730 26-458); experiment: cell-based or functional assay
Chain of CXCR4 and CD4 co-expressed on cells (MOLM-13, THP-1, MT-4, PBMC; Jurkat CD4 low) (P61073 whole entry, chain 1 of 2, other chains not shown, the tested form may be a part): as the sequence (P61073 whole entry, the tested form may be a part) above

[10] = biological target: T2, recombinant IL-3Rα ectodomain; experiment: ELISA on recombinant IL-3Ra ectodomain (panel 'IL-3Ra ELISA', lower left)

T1 sequence (P26951 19-378): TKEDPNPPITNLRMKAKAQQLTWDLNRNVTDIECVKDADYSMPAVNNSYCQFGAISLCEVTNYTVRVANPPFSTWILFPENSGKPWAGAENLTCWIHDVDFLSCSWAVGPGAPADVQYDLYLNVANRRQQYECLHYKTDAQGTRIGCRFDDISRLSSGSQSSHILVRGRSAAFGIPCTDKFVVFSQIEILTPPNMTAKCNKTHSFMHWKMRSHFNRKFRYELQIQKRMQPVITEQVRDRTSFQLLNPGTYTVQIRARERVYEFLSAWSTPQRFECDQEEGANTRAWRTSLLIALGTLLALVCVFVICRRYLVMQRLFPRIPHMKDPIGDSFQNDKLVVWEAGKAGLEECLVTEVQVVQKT

Binder | EC50 [1] [nM] | EC50 [2] [nM] | Kd [3] [nM] | koff [3] [s⁻¹] | kon [3] [M⁻¹ s⁻¹] | IC50, CXCL-12 chemotaxis, Jurkat E6-1 [7] [nM] | further results
55B04 (VHH) VHH: EVQLVESGGGLVQPGGSLRLSCAASGINFRFNSMGWWRRRAPGKEREWVAAITSGDITNYRDSVRGRFTISRDNVKNTVYLQMNTLKLEDTAVYYCNTFPPIADYWGLGTQVTVSS | 1300 | 51.2 | 15.8 | 0.00794 | 504000 | – | IC50 [4]: 55 nM
CEA#2 (VHH, also called T023200002; humanised variant of NbCEA5) VHH: EVQLVESGGGLVQPGGSLRLSCAASGDTYGSYWMGWFRQAPGQGLEAVAAINRGGGYTVYADSVKGRFTISRDNSKNTLYLQMNSLRAEDTAVYYCAASGVLGGLHEDWFNYWGQGTLVTVSS | – | – | – | – | – | – | Kd [5]: 1.9 nM; koff [5]: 0.0025 s⁻¹; kon [5]: 1.3e+06 M⁻¹ s⁻¹
50F07 (VHH) VHH: EVQLVESGGGLVQPGGSLRLSCTGSGSTFSINAMGWYRQAPGKQRELVAAITSGGRTNYADSVKGRFTISRDNSKNTVYLQMNSLRPEDTAVYYCNARISAGTAFWLWSDYEYWGLGTLVTVSS | 66 | 14.6 | 74.2 | 0.00758 | 102000 | – | IC50 [4]: 230 nM
55F03 (VHH) VHH: EVQLVESGGGLVQAGGPLRLSCAASGRTFSSYVMGWFRQAPGKEREFVAAIYWSNGKTQYTDSVKGRFTISGDNAKNTVYLQMNSLNPEDTAVYYCVADKDETGFRTLPIAYDYWGLGTQVTVSS | 350 | 113 | 115 | 0.00487 | 42500 | – | –
cAbLys3 (VHH, also called irrelevant control Nanobody directed to lysozyme) VHH: DVQLQASGGGSVQAGGSLRLSCAASGYTIGPYCMGWFRQAPGKEREGVAAINMGGGITYYADSVKGRFTISQDNAKNTVYLLMNSLEPEDTAIYYCAADSTIYASYYECGHGLSTGGYGYDSWGQGTQVTVSS | – | – | – | – | – | – | binding result [6]: no binding (tested: 250 nM)
51D09 (VHH) VHH: EVQLVESGGGLVQPGGSLRLSCAASGSIFSGNTMGWYRQAPGKQRELVAAISSGGSTDYADSVKGRFTISRDNSKNTVYLQMNSLRPEDTAVYYCNAAILLYRLYGYEEGDYWGLGTLVTVSS | 16 | 15.3 | 13.6 | 0.000516 | 37800 | – | –
57A07-35GS-14D09 (bispecific antibody, FLAG3-His6 also made; also called CD123#1-CXCR4#1; 57A07-14D09) EVQLVESGGGLVQAGGSLRLSCAASGSIFSGNVMGWYRRQAPGKEREWVAAIASGGSIYYRDSVKGRFTISRDNAKNTVYLQMNSLKPEDTAVYYCNSHPPTLPYWGQGTLVTVSSGGGGSGGGGSGGGGSGGGGSGGGGSGGGGSGGGGSEVQLVESGGGLVQAGGSLRLSCVASGISSSKRNMGWYRQAPGKQRESVATISSGGNKDYTDAVKDRFTISRDTTKNTVYLQMNSLKPEDTAVYYCKIEAGTGWATRRGYTYWGQGTLVTVSS | – | – | – | – | – | 210 | Fold inc. vs CXCR4#1, Jurkat E6-1 [7]: 0.05 fold; EC50 (read off the curve) [8]: ~500 pM
03F11-25GS-281F12 (bispecific antibody) EVQLVESGGGSVQPGGSLTLSCGTSGRTFNVMGWFRQAPGKEREFVAAVRWSSTGIYYTQYADSVKSRFTISRDNAKNTVYLEMNSLKPEDTAVYYCAADTYNSNPARWDGYDFRGQGTQVTVSSGGGGSGGGGSGGGGSGGGGSGGGGSEVQLVESGGGLVQAGDSLRLSCAASGRAFSRYAMGWFRQAPGKEREFVAAIGWGPSKTNYADSVKGRFTISRDNAKNTVYLQMNTLKPEDTAVYSCAAKFVNTDSTWSRSEMYTYWGQGTQVTVSS | – | – | – | – | – | – | IC50, HIV-1 BaL (R5), PBMC [9]: 383 nM; IC50, HIV-1 NL4.3 (X4), MT-4 [9]: 9.22 nM; IC50, HIV-1 NL4.3 (X4), PBMC [9]: 8.67 nM; IC50, HIV-1 NL4.3 (X4), U87 [9]: > 3.33 µM
281F12-35GS-57A07 (bispecific antibody, FLAG3-His6 also made; also called CXCR4#2-CD123#1; 281F12-57A07) EVQLVESGGGLVQAGDSLRLSCAASGRAFSRYAMGWFRQAPGKEREFVAAIGWGPSKTNYADSVKGRFTISRDNAKNTVYLQMNTLKPEDTAVYSCAAKFVNTDSTWSRSEMYTYWGQGTLVTVSSGGGGSGGGGSGGGGSGGGGSGGGGSGGGGSGGGGSEVQLVESGGGLVQAGGSLRLSCAASGSIFSGNVMGWYRRQAPGKEREWVAAIASGGSIYYRDSVKGRFTISRDNAKNTVYLQMNSLKPEDTAVYYCNSHPPTLPYWGQGTLVTVSS | – | – | – | – | – | 38 | Fold inc. vs CXCR4#2, Jurkat E6-1 [7]: 2.55 fold; Fold inc. vs CXCR4#2, MOLM-13 [7]: 12.6 fold; IC50, CXCL-12 chemotaxis, MOLM-13 [7]: 6.83 nM; EC50 (read off the curve) [8]: ~500 pM
55C05 (VHH) VHH: EVQLVESGGGLVPAGDSLRLSCVASGRSLNTYTMGWFRQAPGKECEFVAAINWNGVYRDYADSAKGRFTASRDNAMNTVFLQMNSLKPEDTAVYFCATATQGWDRHTEPSDFGSWGLGTQVTVSS | 4100 | 31.2 | 59 | 0.00741 | 126000 | – | IC50 [4]: 190 nM
03F11-9GS-281F12 (bispecific antibody) EVQLVESGGGSVQPGGSLTLSCGTSGRTFNVMGWFRQAPGKEREFVAAVRWSSTGIYYTQYADSVKSRFTISRDNAKNTVYLEMNSLKPEDTAVYYCAADTYNSNPARWDGYDFRGQGTQVTVSSGGGGSGGGGSEVQLVESGGGLVQAGDSLRLSCAASGRAFSRYAMGWFRQAPGKEREFVAAIGWGPSKTNYADSVKGRFTISRDNAKNTVYLQMNTLKPEDTAVYSCAAKFVNTDSTWSRSEMYTYWGQGTQVTVSS | – | – | – | – | – | – | IC50, HIV-1 BaL (R5), PBMC [9]: > 666 nM; IC50, HIV-1 NL4.3 (X4), MT-4 [9]: 14.9 nM; IC50, HIV-1 NL4.3 (X4), PBMC [9]: 17 nM; IC50, HIV-1 NL4.3 (X4), U87 [9]: > 3.33 µM
55A01-35GS-14D09 (bispecific antibody, FLAG3-His6 also made; also called CD123#2-CXCR4#1; 55A01-14D09) EVQLVESGGGSVQAGGSLRLSCTTSGRALNMYVMGWFRQAPGNEREFVAATSSSGGSTSYPDSVKGRFTISRDNAKNTVYLQMNSLKPEDTAAYRCAASPYVSTPTMNILEEYRYWGQGTLVTVSSGGGGSGGGGSGGGGSGGGGSGGGGSGGGGSGGGGSEVQLVESGGGLVQAGGSLRLSCVASGISSSKRNMGWYRQAPGKQRESVATISSGGNKDYTDAVKDRFTISRDTTKNTVYLQMNSLKPEDTAVYYCKIEAGTGWATRRGYTYWGQGTLVTVSS | – | – | – | – | – | 85 | Fold inc. vs CXCR4#1, Jurkat E6-1 [7]: 0.12 fold; Fold inc. vs CXCR4#1, MOLM-13 [7]: 0.03 fold; IC50, CXCL-12 chemotaxis, MOLM-13 [7]: 290 nM; EC50 (read off the curve) [10]: ~1 nM
14D09-35GS-57A07 (bispecific antibody, also made with FLAG3-His6 in Pichia; also called CXCR4#1-CD123#1; 14D09-57A07) EVQLVESGGGLVQAGGSLRLSCVASGISSSKRNMGWYRQAPGKQRESVATISSGGNKDYTDAVKDRFTISRDTTKNTVYLQMNSLKPEDTAVYYCKIEAGTGWATRRGYTYWGQGTLVTVSSGGGGSGGGGSGGGGSGGGGSGGGGSGGGGSGGGGSEVQLVESGGGLVQAGGSLRLSCAASGSIFSGNVMGWYRRQAPGKEREWVAAIASGGSIYYRDSVKGRFTISRDNAKNTVYLQMNSLKPEDTAVYYCNSHPPTLPYWGQGTLVTVSS | – | – | – | – | – | 15 | Fold inc. vs CXCR4#1, Jurkat E6-1 [7]: 0.69 fold; Fold inc. vs CXCR4#1, MOLM-13 [7]: 2.39 fold; IC50, CXCL-12 chemotaxis, MOLM-13 [7]: 3.6 nM; EC50 (read off the curve) [8]: ~500 pM
